The values below come from the supplement of paper PMC7877785.

A short description of the data set: self-splicing fitness, log relative to wild type (ln ratio); higher = more splicing; Tetrahymena group I intron in knt gene, E. coli kanamycin selection, DiMSum; sequences stand for … in CUCUCU…GGAGGGAAAAGUUAUCAGGCAUGCACCUGGUAGCUAGUCUUUAAACCAAUAGAUUGCAUCGGUUUAAAAGGCAAGACCGUCAAAUUGCGGGAAAGGGGUCAACAGCCGUUCAGUACCAAGUCUCAGGGGAAACUUUGAGAUGGCCUUGCAAAGGGUAUGGUAAUAAGCUGACGGACAUGGUCCUAACCACGCAGCCAAGUCCUAAGUCAACAGAUCUUCUGUUGAUAUGGAUGCAGUUCACAGACUAAAUGUCGGUCGGGGAAGAUGUAUUCUUCUCAUAAGAUAUAGUCGGACCUCUCCUUAAUGGGAGCUAGCGGAUGAAGUGAUGCAACACUGGAGCCGCUGGGAACUAAUUUGUAUGCGAAAGUAUAUUGAUUAGUUUUGGAGUACUCGUGGUCG
In short, it runs like this: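 The eight P1ex-region nucleotides of an intron in the knt kanamycin-resistance gene on pET-22b(+) were all randomised and the library put into E. coli BL21(DE3). Six replicate transformations were grown overnight at 37°C or 30°C on LB agar with or without 25 μg/mL kanamycin, together with 100 μg/mL carbenicillin, 50 μM IPTG and 0.2% rhamnose. Colonies were pooled and amplicon-sequenced on an Illumina HiSeq 2500. Fitness from DiMSum is the error-weighted combination of wild-type-normalised replicate fold changes, kanamycin over none.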

± gives the uncertainty stated by the source.

ACCCAGCAAUAUUACGUUGU: the “self-splicing fitness (ln)” value is, setting by setting: (30 °C) -0.339 ± 0.043; (37 °C) -0.0259 ± 0.057.
For the sequence AUCAAGCAAUAUUACGAGGA, the “self-splicing fitness (ln)” value runs as follows: (30 °C) -2.51 ± 0.19; (37 °C) -2.65 ± 0.26.
For GUGUAGCAAUAUUACGCUUC, the “self-splicing fitness (ln)” value was -2.71 ± 0.28 (30 °C) and -3.09 ± 0.47 (37 °C).
Taken in the same sequence, the figures for AAGCAGCAAUAUUACGCGGC were -3.33 ± 0.35 and -2.4 ± 0.24.
In the case of UAGGAGCAAUAUUACGUCCA, the “self-splicing fitness (ln)” value was -1.23 ± 0.17 (30 °C) and -0.339 ± 0.18 (37 °C).
Consider UAACAGCAAUAUUACGAUCG, for which the “self-splicing fitness (ln)” value is -0.667 ± 0.07 (30 °C) and -0.00548 ± 0.098 (37 °C).
Taken in the same sequence, the figures for UCAAAGCAAUAUUACGCCCG were -1.66 ± 0.2 and -0.884 ± 0.27.
As for CUGCAGCAAUAUUACGGGCG, the “self-splicing fitness (ln)” value reads like this: (30 °C) -1.3 ± 0.059; (37 °C) -0.522 ± 0.073.
For the sequence CGUGAGCAAUAUUACGCAAA, the “self-splicing fitness (ln)” value (37 °C) was -1.84 ± 0.46.
Turning to UCGUAGCAAUAUUACGCCCA, the “self-splicing fitness (ln)” value reads like this: (30 °C) -0.576 ± 0.14; (37 °C) 0.129 ± 0.19.
Taken in the same sequence, the figures for UGCAAGCAAUAUUACGCGUU were -2.66 ± 0.16 and -1.29 ± 0.14.
As to CGAGAGCAAUAUUACGCGGA, the “self-splicing fitness (ln)” value is -2.34 ± 0.37 (30 °C) and -1.37 ± 0.19 (37 °C).
Taken in the same sequence, the figures for AGGUAGCAAUAUUACGCUAG were -4.002 ± 0.038 and -2.89 ± 0.046.
The corresponding values for UGACAGCAAUAUUACGACCU are -1.09 ± 0.11 and 0.0765 ± 0.14.
On to CCUGAGCAAUAUUACGGUCU, for which the “self-splicing fitness (ln)” value (37 °C) is -3.78 ± 0.42.
With AUCCAGCAAUAUUACGCACC, the “self-splicing fitness (ln)” value was -1.19 ± 0.13 (30 °C) and 0.657 ± 0.17 (37 °C).
For the sequence UCAAAGCAAUAUUACGGGAC, the “self-splicing fitness (ln)” value is -1.98 ± 0.2 (30 °C) and -1.75 ± 0.25 (37 °C).
UAAGAGCAAUAUUACGGAUC: the “self-splicing fitness (ln)” value is -3.68 ± 0.46 (30 °C) and -1.64 ± 0.31 (37 °C).
The corresponding values for CGCCAGCAAUAUUACGGUAU are -2.65 ± 0.088 and -0.699 ± 0.1.
With GGGCAGCAAUAUUACGUGAG, the “self-splicing fitness (ln)” value reads like this: (30 °C) -0.483 ± 0.085; (37 °C) -0.435 ± 0.1.
As to AGGGAGCAAUAUUACGUGAA, the “self-splicing fitness (ln)” value (30 °C) is -3.18 ± 0.32 and the “self-splicing fitness (ln)” value (37 °C) is -2.53 ± 0.3.
Take ACAGAGCAAUAUUACGCCUG: the “self-splicing fitness (ln)” value (37 °C) was -1.94 ± 0.46.
GUCGAGCAAUAUUACGCGCA: the “self-splicing fitness (ln)” value reads like this: (30 °C) -0.713 ± 0.26; (37 °C) -1.17 ± 0.21.
The corresponding values for GGCCAGCAAUAUUACGCUUG are -4.13 ± 0.26 and -2.58 ± 0.2.
As to UAGCAGCAAUAUUACGAAUA, the “self-splicing fitness (ln)” value is, setting by setting: (30 °C) -0.737 ± 0.1; (37 °C) -0.606 ± 0.11.
On to UUACAGCAAUAUUACGCGAC, for which the “self-splicing fitness (ln)” value reads like this: (30 °C) -2.37 ± 0.17; (37 °C) -1.41 ± 0.18.
For GGCCAGCAAUAUUACGUCGG, the “self-splicing fitness (ln)” value (30 °C) was -3.69 ± 0.26 and the “self-splicing fitness (ln)” value (37 °C) was -1.9 ± 0.24.
Taken in the same sequence, the figures for GCUAAGCAAUAUUACGACUU were -0.326 ± 0.09 and -0.0273 ± 0.098.
On to ACACAGCAAUAUUACGUAUG, for which the “self-splicing fitness (ln)” value reads like this: (30 °C) -2.32 ± 0.076; (37 °C) -1.9 ± 0.098.
For the sequence GCUCAGCAAUAUUACGGUAC, the “self-splicing fitness (ln)” value was -0.486 ± 0.13 (30 °C) and -0.709 ± 0.15 (37 °C).
The corresponding values for UAGUAGCAAUAUUACGGCGG are -0.668 ± 0.085 and -0.639 ± 0.11.
Taken in the same sequence, the figures for UGAUAGCAAUAUUACGAACU were -1.03 ± 0.12 and 0.402 ± 0.11.
With UAUCAGCAAUAUUACGAUAA, the “self-splicing fitness (ln)” value was -0.166 ± 0.081 (30 °C) and -0.065 ± 0.092 (37 °C).
As for UUCAAGCAAUAUUACGAUGC, the “self-splicing fitness (ln)” value is -3.39 ± 0.45 (30 °C) and -1.85 ± 0.28 (37 °C).
The corresponding values for AUUUAGCAAUAUUACGUCCG are -1.76 ± 0.18 and -0.728 ± 0.22.
Taken in the same sequence, the figures for GUGGAGCAAUAUUACGUAUC were -2.13 ± 0.2 and -0.331 ± 0.17.
Taken in the same sequence, the figures for UCAUAGCAAUAUUACGACCA were -0.368 ± 0.34 and -0.568 ± 0.31.
For GAAUAGCAAUAUUACGCCCG, the “self-splicing fitness (ln)” value (30 °C) was -1.28 ± 0.18 and the “self-splicing fitness (ln)” value (37 °C) was -0.828 ± 0.23.
For the sequence GUGAAGCAAUAUUACGCCCG, the “self-splicing fitness (ln)” value reads like this: (30 °C) -0.347 ± 0.39; (37 °C) -0.026 ± 0.42.
Regarding ACUCAGCAAUAUUACGAGCC, the “self-splicing fitness (ln)” value is -1.32 ± 0.079 (30 °C) and -0.908 ± 0.11 (37 °C).
The corresponding values for GAGCAGCAAUAUUACGCAGA are -3.22 ± 0.21 and -0.954 ± 0.1.
On to AACGAGCAAUAUUACGCACC, for which the “self-splicing fitness (ln)” value (30 °C) was -2.32 ± 0.42 and the “self-splicing fitness (ln)” value (37 °C) was -1.65 ± 0.35.
UACAAGCAAUAUUACGGUCC: the “self-splicing fitness (ln)” value by setting is: (30 °C) -1.38 ± 0.18; (37 °C) -1.34 ± 0.18.
Taken in the same sequence, the figures for GCUAAGCAAUAUUACGACGU were -0.0363 ± 0.17 and 0.155 ± 0.19.
Taken in the same sequence, the figures for AGCGAGCAAUAUUACGCCAA were -3.98 ± 0.25 and -1.56 ± 0.16.
On to UUAAAGCAAUAUUACGUUGG, for which the “self-splicing fitness (ln)” value by setting is: (30 °C) -1.12 ± 0.094; (37 °C) -0.746 ± 0.1.
Regarding AAUCAGCAAUAUUACGGUGG, the “self-splicing fitness (ln)” value is -1.14 ± 0.056 (30 °C) and -0.718 ± 0.076 (37 °C).
For UUAGAGCAAUAUUACGAGCC, the “self-splicing fitness (ln)” value (30 °C) was -0.789 ± 0.47.
Take CGGAAGCAAUAUUACGGUUA: the “self-splicing fitness (ln)” value is -1.96 ± 0.18 (30 °C) and -2.25 ± 0.2 (37 °C).
The corresponding values for CCGGAGCAAUAUUACGGUAU are -4.05 ± 0.2 and -3.34 ± 0.22.
Consider AACCAGCAAUAUUACGGCCG, for which the “self-splicing fitness (ln)” value was 0.0592 ± 0.073 (30 °C) and -0.223 ± 0.1 (37 °C).
The corresponding values for UGAUAGCAAUAUUACGUUAG are -1.92 ± 0.1 and -1.57 ± 0.15.
The corresponding values for CCGAAGCAAUAUUACGCGCG are -1.23 ± 0.11 and 0.0615 ± 0.12.
Taken in the same sequence, the figures for GGCAAGCAAUAUUACGGUUA were -0.0834 ± 0.075 and 0.577 ± 0.074.
In the case of UGACAGCAAUAUUACGGUGU, the “self-splicing fitness (ln)” value is, setting by setting: (30 °C) -4.28 ± 0.23; (37 °C) -2.52 ± 0.19.
Taken in the same sequence, the figures for GUAAAGCAAUAUUACGCUUU were -3.46 ± 0.23 and -1.8 ± 0.27.
The corresponding values for GCCGAGCAAUAUUACGCCUA are -2.44 ± 0.2 and -1.58 ± 0.16.
The corresponding values for UACUAGCAAUAUUACGCAGG are -1.77 ± 0.14 and -1.49 ± 0.15.
As to GCGUAGCAAUAUUACGAGUG, the “self-splicing fitness (ln)” value is -1.78 ± 0.15 (30 °C) and -1.19 ± 0.21 (37 °C).
For the sequence AUCUAGCAAUAUUACGCAAC, the “self-splicing fitness (ln)” value is -3.38 ± 0.37 (30 °C) and -2.06 ± 0.32 (37 °C).
As to CUAGAGCAAUAUUACGGUGC, the “self-splicing fitness (ln)” value was -3.31 ± 0.26 (30 °C) and -2.32 ± 0.37 (37 °C).
